Measured values published in patent publication US20160184455A1.

Target: MaxiK channel of rat bladder detrusor smooth muscle (endogenous) (rat) (UniProt Q62976)
Assay: cell-based or functional assay

UniProt Q62976, sequence (Q62976 whole entry): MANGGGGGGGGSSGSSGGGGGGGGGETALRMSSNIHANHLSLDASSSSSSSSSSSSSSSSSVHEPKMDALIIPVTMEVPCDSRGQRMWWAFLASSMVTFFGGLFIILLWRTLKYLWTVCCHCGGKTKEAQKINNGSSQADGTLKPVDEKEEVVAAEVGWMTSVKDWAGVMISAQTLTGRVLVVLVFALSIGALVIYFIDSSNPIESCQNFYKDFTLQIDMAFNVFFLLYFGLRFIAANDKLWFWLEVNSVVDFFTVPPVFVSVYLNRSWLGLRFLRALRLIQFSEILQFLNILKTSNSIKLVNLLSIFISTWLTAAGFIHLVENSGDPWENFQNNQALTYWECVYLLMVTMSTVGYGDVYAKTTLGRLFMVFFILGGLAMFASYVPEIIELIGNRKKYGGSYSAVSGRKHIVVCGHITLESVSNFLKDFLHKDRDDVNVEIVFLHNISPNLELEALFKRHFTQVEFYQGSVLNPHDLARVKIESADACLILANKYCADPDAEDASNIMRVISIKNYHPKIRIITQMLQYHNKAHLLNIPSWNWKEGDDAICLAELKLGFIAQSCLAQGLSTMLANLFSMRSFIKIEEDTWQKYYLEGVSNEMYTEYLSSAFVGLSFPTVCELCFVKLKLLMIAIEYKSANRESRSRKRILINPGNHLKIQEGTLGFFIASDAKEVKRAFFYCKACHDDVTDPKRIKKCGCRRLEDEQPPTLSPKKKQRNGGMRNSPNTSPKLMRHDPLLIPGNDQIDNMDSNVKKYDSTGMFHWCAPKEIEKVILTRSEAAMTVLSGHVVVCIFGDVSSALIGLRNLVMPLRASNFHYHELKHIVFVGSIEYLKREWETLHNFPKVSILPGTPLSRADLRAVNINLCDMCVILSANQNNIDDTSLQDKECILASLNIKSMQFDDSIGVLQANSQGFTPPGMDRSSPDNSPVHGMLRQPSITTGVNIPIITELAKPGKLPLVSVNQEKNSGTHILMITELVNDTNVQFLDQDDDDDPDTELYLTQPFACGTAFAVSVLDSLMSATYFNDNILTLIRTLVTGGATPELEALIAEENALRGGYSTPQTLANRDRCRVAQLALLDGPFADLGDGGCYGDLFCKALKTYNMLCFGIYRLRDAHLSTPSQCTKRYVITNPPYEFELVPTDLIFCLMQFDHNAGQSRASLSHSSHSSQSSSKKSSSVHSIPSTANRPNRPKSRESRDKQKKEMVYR

## iberiotoxin (IBTX) (from UniProt P24663 1-37) (peptide)
  outward current in response to applied voltage, single whole cell patch clamp of detrusor cells before and after 300 nM IBTX: > 50%
